From the supplement of paper PMC12764529
± gives the half width of the 95% confidence interval.

Experiment: folding stability dG unfold from chymotrypsin proteolysis; higher = more stable
How it was run: (§1)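 Digests were run with trypsin and chymotrypsin at 11 concentrations in threefold dilutions, plus a no-protease condition, on designed mini-proteins in a PA-tagged cDNA display construct. The mini-proteins were under 80 residues, had no cysteine, and were kept only when AlphaFold2 dimer inter-PAE was above 15. After sequencing, Bayesian fitting of the counts gave K50, from which unfolding free energy was derived against a sequence-predicted unfolded-state K50 and a shared folded-state K50, per protease or combined.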

Row | Sequence | folding stability dG unfold [kcal/mol]
1 | SAGMKITISYDEAKGIATVTLYEERPVETPNGPVTLRRKVATVTIPYTSLEEAKKQAEEAAKALLEKLSSAG [r5_956_JUSTAS] | 5.036 ± 0.033
2 | SAGGSDKLYIRNPDHTIEIDEVKEPPDGEKYVRIRHEPPDGKEKEHEFPPDELADKFGLPPDNIEISAGGSA [r2_262_TrROS] | -0.217 ± 0.79
3 | SAGGFEFKAVKLKKNEEKEGELGGAKVRYVSDNKGPVYQVVEFGPEYRALAKVEGDKVELVAVEEGNPSAGG [r13_92_TrMRF] | 0.00343 ± 0.21
4 | SAGGMVTITTEKMTEEEAEELKKKLPPNTVLLPNPANDTIVPILVPPDPAVLQAVKDALEKELAEAKSAGGS [r16_311_JUSTAS] | 0.662 ± 0.24
5 | SAGGSASLESEDVEEVSTSTSVVPLPDGGTATVTTTTYRHKEPGTLVTRTTTTFPGGATTTTVTLLSAGGSA [r15_188_JUSTAS] | 2.04 ± 0.022
6 | SAGGTTTTLTFETEEEAREFAEELREKHPDVVLEVEIRRETRTVTVPGVGEVREVDRVVVTVTLTPASAGGS [r16_828_JUSTAS] | 3.27 ± 0.064
7 | SAGGSYLDEVREKILKEYPLKPGEPKEIEITVPLPSGRTVKIKIPVTVDPKTGKVEAKFEVLEETKESAGGS [r16_634_JUSTAS] | 1.22 ± 0.028
8 | SAGGSANLPPGQPKIITITIPLGEEVRNPDGEPMTPEDIADNFQERFGNIEVEKSPNGWLEVTFWLSAGGSA [r15_645_TrROS] | 0.637 ± 0.15
9 | SAGGSAMPVVELPIGPELYEKIKEAAEAGDPDKVITLPLKLPNGEEVTLVVEADPATPEFRARVELSAGGSA [r15_700_TrMRF] | 0.397 ± 0.085
10 | SAGGSAEELLKKLKIVEVKEVDGKLYIEIEVDEPGLTVEEIKEILKELNLDVPIEVKEVVVVEEKESAGGSA [r15_599_TrROS_Hall] | 2.16 ± 0.062
11 | SAGGSAGGMKTFTIDELKKLAEELGAEIYYDKDTNTIYIRTPGKIFRITINDDGTVTIEELPPKSAGGSAGG [r6_155_TrROS_Hall] | 3.99 ± 0.083
12 | SAGGSAGGSKPVLVKVERKEVEVPLPDGTPGKVFVVKVTVLGENEPLAEKTYLFASEEEAKESSAGGSAGGS [r12_461_TrMRF] | 0.761 ± 0.17
13 | SAGGSAGGSAKKVVTVPEDATLEEIEELLKSGEKVTVVIHNKETGKTETLEFDSLEELKAASAGGSAGGSAG [r3_362_TrROS_Hall] | 1.91 ± 0.16
14 | SAGGSAGGKKVYPIPGATPNQFRELLDENKGTLKIYMPNGKQEEFPIKPGMEPIPGGPAWIERKSAGGSAGG [r6_304_TrROS] | -1.29 ± 0.85
15 | SAGGSKTVTLTVTVEVNGKTFTVTVTLTYDEETNKLTITVEISAKSEEERERARELVEKLLKELLSSAGGSA [r2_259_TrROS_Hall] | 4.95 ± 0.094
16 | SAGGSAGGSAGGSMITIEVTTPTEKHTIEVPEDEVPEEELIERAKKLFPDVEKITILKESAGGSAGGSAGGS [r4_235_JUSTAS] | 0.613 ± 0.059
17 | SAGGMPEGMVVLRIRVRVEKVEVRRDPAVPGRVSRRVEVREVEIELVVDSREALEALRELGFEIEEVSAGGS [r8_482_TrROS_Hall] | 4.43 ± 0.11
18 | SAGGSRTVLLYDPDNPRPYIVEYDPATGTLRIYDPETGELVAEFPIPDLKDIEAPVVPNGILLGAIVDSAGG [r13_720_TrMRF] | 1.998 ± 0.018
19 | SAGQPGKPIRKYTFDLPDDDKITVEVYMYPDGNMMIKIEDNNGKERNIMIPANDLQNMPIEDLVKWLRSAGG [r19_47_TrROS] | 3.57 ± 0.062
20 | SAGGSAAGAERVTYNYMIPNDGKWFMIRITIYRFEVKRDPEDNKYKLDLPPGDQLFINTEIMWFPNSAGGSA [r15_1040_TrROS] | 4.14 ± 0.076
21 | SAGGIIEIDPNGWVIRIEMYPPDGKPPKHTIPFPNATPEELIDELKDWADQLPNPGHKVKIDEITPMPSAGG [r13_29_TrROS] | 0.372 ± 0.17

Experiment: folding stability dG unfold (combined trypsin and chymotrypsin); higher = more stable
How it was run: as §1

Row | Sequence | folding stability dG unfold [kcal/mol]
22 | SAGGSMETRETLEERTLPNGEKVLTTTTTYPDGTVTTRTTVIHGGTSTVTTTTTPAAPVPGPAPARASAGGS [r16_523_JUSTAS] | 1.55 ± 0.085
23 | SAGGSAGGSADEPETTTTTTTTTTTKKPAPPAPPKTITLDVEVNGKTLRLTFTSKEALDALSAGGSAGGSAG [r3_426_TrROS_Hall] | 1.03 ± 0.15
24 | SAGGSAGGSAGMTYVYPGPDGKEYLAEVDPNIPGAEVTVTPPDTGETVTVPLSQVTEVPPSAGGSAGGSAGG [r11_822_JUSTAS] | 0.222 ± 0.063
25 | SAEMKIEKIEVKPLEEEPELVEITIKVKDPEKLKEALEKAGFTVEEVDEEEGKLTITMSREQLEKLLKASAG [r14_777_TrROS_Hall] | 1.91 ± 0.31
26 | SAGGSAGGGKPKVEIEYNGKTYEFDSLEELVAEAKEPVRIRLPNGEEIELSREDLKNLTVRLVPSAGGSAGG [r6_684_TrROS_Hall] | 1.99 ± 0.043
27 | MRITLEHPDIKRLTIEFRPMPDGYFRMDIKVERPDGKPVPIPFPMRYEDGKMTPEMMEQMIDEAVEEALADS [r1_124_TrROS] | 0.689 ± 0.21
28 | SAGGSMIITRDPATGLVTVYKNGKKVKTIEVPPGNPVGVSLSYNPSPNTYTVTLTTPESPVKISNLSAGGSA [r2_399_JUSTAS] | 1.15 ± 0.06
29 | SAMVITTSLEEARKRTGLSESASPEEVRAAVEALIAAETAAGVTLLAIELLEVGDTWTLRVEIERAGGVSAG [r14_158_JUSTAS] | 2.07 ± 0.077
30 | SMYTADFILPDEVLKTVPLEGKSVEEALEKVKEIVKQLPPNTPLLVKISYTEVDPKTGTTRTGTITVPLKSA [r9_245_JUSTAS] | 2.2 ± 0.19
31 | SRIKITVKPKPDGNFYIKIWFPNNGKPFIFPIKNPDAMDEARDDPGQTIEVPEDYLRSLFPDNFTDVEIVSA [r9_390_TrROS] | 1.25 ± 0.064
